Assay [1] deals with T1, recombinant human FcγRIIB expressed in CHO cells (human, UniProt P31994 43-217, limits assumed).
T1 construct: Soluble analyte injected in SPR; also called human FcgRIIB; rhFcgRIIB (CHO)
T1 sequence (looked up): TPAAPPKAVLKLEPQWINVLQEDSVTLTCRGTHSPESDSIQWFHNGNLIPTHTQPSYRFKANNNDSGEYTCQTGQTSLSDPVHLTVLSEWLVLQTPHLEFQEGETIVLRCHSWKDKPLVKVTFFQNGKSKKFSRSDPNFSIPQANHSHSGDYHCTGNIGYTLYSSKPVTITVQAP
Description: SPR (Biacore), 1/1 binding model; reference Herceptin. (In general: SPR reads the build-up and loss of mass on a sensor chip optically.)

In assay [2] the target is T1, recombinant human FcγRIIB expressed in …. The assay can be described thus: SPR (Biacore); capture sample on chip, rhFcgRIIB (CHO) injected; reference Herceptin. As to the method: (§1) Purified IgGs were analyzed by SDS-PAGE for expression and assayed for binding to human or mouse FcγRIIB. […] The CMS chip (GE Healthcare, Wauwatusa, Wis.) was immobilized on all flow cells with mouse anti-human IgG (Fc specific) (obtained from GE Healthcare, Wauwatusa, Wis.) according to the Biacore Human Antibody Capture Kit to ˜7000 RU. Purified full-length IgG1 variants containing mutations in Fc region (described in Example 1) were captured on the chip through immobilized mouse anti-human IgG (obtained from GE Healthcare, Wauwatusa, Wis.) followed by injection of human or mouse FcγRIIB. Human FcγRIIB was expressed in Chinese Hamster Ovary cells (Merck, Whithouse Station, N.J.) and mouse FcγRIIB was expressed in NS0 murine myeloma (R&D Systems, Minneapolis, Minn.)). Each flowcell was regenerated between each analyte injection with 3M MgCl for 40 s at 10 μl/min. Data was analyzed with Biacore T100 Evaluation Software using the 1/1 binding model for KD values, where reported. Amino acid compositions of novel variants were identified by DNA sequencing. Clones were tabulated based on response units (RU's) registered following receptor binding.
(§2) Resulting clones were fermented in 1 L bioreactor vessels to produce each of the described variants. Culture supernatants were passed over protein A coated beads to capture secreted Fc fragments. Purified Fc fragments were eluted at pH 3.0 into tubes containing 1M Tris (pH 8.0). Purified Fc fragments were analyzed by surface plasmon resonance (SPR) on Biacore for binding to human and mouse FcγRIIB as described in Example 2.

Assay [3] deals with T2, recombinant mouse FcγRIIB expressed in NS0 cells (mouse, UniProt P08101 40-207, limits assumed).
T2 construct: Bought from R&D Systems; soluble analyte injected in SPR; also called rmFcgRIIB (NSO); CD32-B
T2 sequence (looked up): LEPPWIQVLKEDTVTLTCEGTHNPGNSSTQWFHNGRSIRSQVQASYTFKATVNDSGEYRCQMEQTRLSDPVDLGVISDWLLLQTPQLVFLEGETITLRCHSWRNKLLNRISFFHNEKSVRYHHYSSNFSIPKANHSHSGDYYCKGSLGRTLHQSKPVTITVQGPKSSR
Description: SPR (Biacore); capture sample on chip, rmFcgRIIB (NSO) injected; reference Herceptin. The protocol:
as §1, §2

B1: F243A/V264A/S267E/L328F Fc (SEQ ID NO8) (other)
chain: AEPKSCDKTHTCPPCPAPELLGGPSVFLAPPKPKDTLMISRTPEVTCVVADVEHEDPEVKFNWYVDGVEVHNAKTKPREEQYNSTYRVVSVLTVLHQDWLNGKEYKCKVSNKAFPAPIEKTISKAKGQPREPQVYTLPPSREEMTKNQVSLTCLVKGFYPSDIAVEWESNGQPENNYKTTPPVLDSDGSFFLYSKLTVDKSRWQQGNVFSCSVMHEALHNHYTQKSLSLSPG
notes: Human IgG1 Fc fragment with F243A, V264A, S267E, L328F (EU)
For B1, the “Fold Improvement in KD vs WT IgG1 rhFcgRIIb” value in assay [1] came to 11 fold. In addition, the “Fold Increase in RU vs WT IgG1” value in assay [2] is 7 fold; in assay [3], 2.4 fold.

B2: 183-D4/F241A Fc (SEQ ID NO13) (other)
chain: AEPKSCDKTHTCPPCPAPELLGGPSVALFPPKPKDTLMISRTPEVTCVVVDVSHEDPEVKFNWYVDGVEVHNAKTKPREEQYNSTYRVVSVLTVLHQDWLNGEEYKCKVSNEALPAPIEKTISKTKGRPREPQVYTLPPSRDELTKNQVSLTCLVKGFYPSDIAVEWESNGQPENNYKTTPPVLDSDGSFFLYSKLTVDRSRWQQGNVFSCSVMHEALHNHYTQKSLSLSPGK
notes: Human IgG1 Fc fragment with F241A, K317E, K326E, A339T, Q342R, K414R (EU)
Regarding B2, the “Fold Increase in RU vs WT IgG1” value in assay [2] stood at 4.7 fold; in assay [3], 5 fold.

B3: K317E/K326E/K414R Fc (SEQ ID NO11) (other)
chain: AEPKSCDKTHTCPPCPAPELLGGPSVFLFPPKPKDTLMISRTPEVTCVVVDVSHEDPEVKFNWYVDGVEVHNAKTKPREEQYNSTYRVVSVLTVLHQDWLNGEEYKCKVSNEALPAPIEKTISKAKGQPREPQVYTLPPSRDELTKNQVSLTCLVKGFYPSDIAVEWESNGQPENNYKTTPPVLDSDGSFFLYSKLTVDRSRWQQGNVFSCSVMHEALHNHYTQKSLSLSPGK
notes: Human IgG1 Fc fragment, made in glycoengineered Pichia pastoris
For the molecule B3, in assay [3], the “Fold Increase in RU vs WT IgG1” value was 5.2 fold.

B4: 183-D4/F241A/L328F Fc (SEQ ID NO12) (other)
chain: AEPKSCDKTHTCPPCPAPELLGGPSVALFPPKPKDTLMISRTPEVTCVVVDVSHEDPEVKFNWYVDGVEVHNAKTKPREEQYNSTYRVVSVLTVLHQDWLNGEEYKCKVSNEAFPAPIEKTISKTKGRPREPQVYTLPPSRDELTKNQVSLTCLVKGFYPSDIAVEWESNGQPENNYKTTPPVLDSDGSFFLYSKLTVDRSRWQQGNVFSCSVMHEALHNHYTQKSLSLSPGK
notes: Human IgG1 Fc fragment with F241A, K317E, K326E, L328F, A339T, Q342R, K414R (EU)
On to B4, for which the “Fold Increase in RU vs WT IgG1” value in assay [2] came out at 1.2 fold; in assay [3] it was 1.3 fold.

Source of the values: patent US20160215061A1 (Merck Sharp & Dohme, published 2016).
